Here are results for two molecules from US20100047228A1.

Targets include delta-plasmin (human) (UniProt P00747); mini-plasmin (human) (UniProt P00747); micro-plasmin (UniProt P00747); plasmin (human) (UniProt P00747).
What all share (assay): cell-based or functional assay

Sequence of delta-plasmin (human) (P00747 other isoform, or with tags, fused parts or gaps mutant limits assumed): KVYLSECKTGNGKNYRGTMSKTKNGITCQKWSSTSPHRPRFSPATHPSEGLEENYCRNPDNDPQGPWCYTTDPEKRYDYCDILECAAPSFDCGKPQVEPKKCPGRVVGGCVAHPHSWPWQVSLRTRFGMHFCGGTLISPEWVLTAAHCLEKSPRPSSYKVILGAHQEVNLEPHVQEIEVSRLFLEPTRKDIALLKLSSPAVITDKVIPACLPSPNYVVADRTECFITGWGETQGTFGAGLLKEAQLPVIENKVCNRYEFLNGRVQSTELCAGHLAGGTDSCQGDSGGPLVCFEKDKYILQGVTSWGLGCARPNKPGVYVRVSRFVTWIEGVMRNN
Sequence of micro-plasmin (P00747 562-810 limits assumed): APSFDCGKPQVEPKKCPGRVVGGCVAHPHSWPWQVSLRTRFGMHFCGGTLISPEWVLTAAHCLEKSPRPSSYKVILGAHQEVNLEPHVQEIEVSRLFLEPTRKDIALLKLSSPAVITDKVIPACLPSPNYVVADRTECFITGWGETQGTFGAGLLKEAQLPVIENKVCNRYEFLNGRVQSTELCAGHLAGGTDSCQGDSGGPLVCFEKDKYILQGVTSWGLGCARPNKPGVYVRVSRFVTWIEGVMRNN
Sequence of mini-plasmin (human) (P00747 462-580, chain 1 of 2): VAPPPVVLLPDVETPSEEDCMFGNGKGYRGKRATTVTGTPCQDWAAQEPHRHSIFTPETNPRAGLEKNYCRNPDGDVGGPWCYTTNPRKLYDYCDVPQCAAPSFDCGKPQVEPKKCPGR
Sequence of mini-plasmin (human) (P00747 581-810, chain 2 of 2): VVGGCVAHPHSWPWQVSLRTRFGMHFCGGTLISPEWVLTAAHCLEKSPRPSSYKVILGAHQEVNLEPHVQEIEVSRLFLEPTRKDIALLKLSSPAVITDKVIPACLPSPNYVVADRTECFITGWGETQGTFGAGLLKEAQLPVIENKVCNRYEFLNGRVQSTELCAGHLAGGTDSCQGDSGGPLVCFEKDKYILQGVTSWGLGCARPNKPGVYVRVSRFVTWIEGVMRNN
Sequence of plasmin (human) (P00747 20-580, chain 1 of 2): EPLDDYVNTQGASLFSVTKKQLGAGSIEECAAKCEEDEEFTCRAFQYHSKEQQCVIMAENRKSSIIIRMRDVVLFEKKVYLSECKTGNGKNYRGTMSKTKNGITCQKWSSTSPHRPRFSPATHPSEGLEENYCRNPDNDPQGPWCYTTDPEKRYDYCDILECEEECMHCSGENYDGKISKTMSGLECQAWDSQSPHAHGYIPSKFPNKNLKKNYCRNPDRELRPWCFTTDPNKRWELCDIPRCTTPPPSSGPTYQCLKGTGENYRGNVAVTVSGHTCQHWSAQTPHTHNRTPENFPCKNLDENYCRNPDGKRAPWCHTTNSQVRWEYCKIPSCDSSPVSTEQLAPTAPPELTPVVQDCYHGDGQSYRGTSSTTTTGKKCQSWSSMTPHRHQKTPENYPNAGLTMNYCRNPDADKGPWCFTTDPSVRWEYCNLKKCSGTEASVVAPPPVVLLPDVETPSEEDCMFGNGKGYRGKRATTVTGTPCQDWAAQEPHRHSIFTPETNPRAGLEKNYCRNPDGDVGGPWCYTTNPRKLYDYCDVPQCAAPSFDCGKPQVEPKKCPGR
Sequence of plasmin (human) (P00747 581-810, chain 2 of 2): as the sequence (P00747 581-810, chain 2 of 2) above

B1: α2-antiplasmin (protein, UniProt P08697 40-491, looked up)
chain: NQEQVSPLTLLKLGNQEPGGQTALKSPPGVCSRDPTPEQTHRLARAMMAFTADLFSLVAQTSTCPNLILSPLSVALALSHLALGAQNHTLQRLQQVLHAGSGPCLPHLLSRLCQDLGPGAFRLAARMYLQKGFPIKEDFLEQSEQLFGAKPVSLTGKQEDDLANINQWVKEATEGKIQEFLSGLPEDTVLLLLNAIHFQGFWRNKFDPSLTQRDSFHLDEQFTVPVEMMQARTYPLRWFLLEQPEIQVAHFPFKNNMSFVVLVPTHFEWNVSQVLANLSWDTLHPPLVWERPTKVRLPKLYLKHQMDLVATLSQLGLQELFQAPDLRGISEQSLVVSGVQHQSTLELSEVGVEAAAATSIAMSRMSLSSFSVNRPFLFFIFEDTTGLPLFVGSVRNPNPSAPRELKEQQDSPGNKDFLQSLKGFPRGDKLFGPDLKLVPPMEEDYPQFGSPK
With B1, in the test with delta-plasmin (human), the inhibition rate was found to be 1e+07 M⁻¹ s⁻¹; the inhibition rate, fold against micro-plasmin or mini-plasmin is 40 fold; the rate of inhibition was determined as 1.1e+07 M⁻¹ s⁻¹. The same molecule displayed an inhibition rate with mini-plasmin (human) of 240000 M⁻¹ s⁻¹. In the test with micro-plasmin, this molecule came in with an inhibition rate of 180000 M⁻¹ s⁻¹ and an inhibition rate (second of two separate experiments) of 310000 M⁻¹ s⁻¹.

B2: α2-macroglobulin (protein, UniProt P01023 24-1474, looked up)
chain: SVSGKPQYMVLVPSLLHTETTEKGCVLLSYLNETVTVSASLESVRGNRSLFTDLEAENDVLHCVAFAVPKSSSNEEVMFLTVQVKGPTQEFKKRTTVMVKNEDSLVFVQTDKSIYKPGQTVKFRVVSMDENFHPLNELIPLVYIQDPKGNRIAQWQSFQLEGGLKQFSFPLSSEPFQGSYKVVVQKKSGGRTEHPFTVEEFVLPKFEVQVTVPKIITILEEEMNVSVCGLYTYGKPVPGHVTVSICRKYSDASDCHGEDSQAFCEKFSGQLNSHGCFYQQVKTKVFQLKRKEYEMKLHTEAQIQEEGTVVELTGRQSSEITRTITKLSFVKVDSHFRQGIPFFGQVRLVDGKGVPIPNKVIFIRGNEANYYSNATTDEHGLVQFSINTTNVMGTSLTVRVNYKDRSPCYGYQWVSEEHEEAHHTAYLVFSPSKSFVHLEPMSHELPCGHTQTVQAHYILNGGTLLGLKKLSFYYLIMAKGGIVRTGTHGLLVKQEDMKGHFSISIPVKSDIAPVARLLIYAVLPTGDVIGDSAKYDVENCLANKVDLSFSPSQSLPASHAHLRVTAAPQSVCALRAVDQSVLLMKPDAELSASSVYNLLPEKDLTGFPGPLNDQDNEDCINRHNVYINGITYTPVSSTNEKDMYSFLEDMGLKAFTNSKIRKPKMCPQLQQYEMHGPEGLRVGFYESDVMGRGHARLVHVEEPHTETVRKYFPETWIWDLVVVNSAGVAEVGVTVPDTITEWKAGAFCLSEDAGLGISSTASLRAFQPFFVELTMPYSVIRGEAFTLKATVLNYLPKCIRVSVQLEASPAFLAVPVEKEQAPHCICANGRQTVSWAVTPKSLGNVNFTVSAEALESQELCGTEVPSVPEHGRKDTVIKPLLVEPEGLEKETTFNSLLCPSGGEVSEELSLKLPPNVVEESARASVSVLGDILGSAMQNTQNLLQMPYGCGEQNMVLFAPNIYVLDYLNETQQLTPEIKSKAIGYLNTGYQRQLNYKHYDGSYSTFGERYGRNQGNTWLTAFVLKTFAQARAYIFIDEAHITQALIWLSQRQKDNGCFRSSGSLLNNAIKGGVEDEVTLSAYITIALLEIPLTVTHPVVRNALFCLESAWKTAQEGDHGSHVYTKALLAYAFALAGNQDKRKEVLKSLNEEAVKKDNSVHWERPQKPKAPVGHFYEPQAPSAEVEMTSYVLLAYLTAQPAPTSEDLTSATNIVKWITKQQNAQGGFSSTQDTVVALHALSKYGAATFTRTGKAAQVTIQSSGTFSSKFQVDNNNRLLLQQVSLPELPGEYSMKVTGEGCVYLQTSLKYNILPEKEEFPFALGVQTLPQTCDEPKAHTSFQISLSVSYTGSRSASNMAIVDVKMVSGFIPLKPTVKMLERSNHVSRTEVSSNHVLIYLDKVSNQTLSLFFTVLQDVPVRDLKPAIVKVYDYYETDEFAIAEYNAPCSKDLGNA
B2: the inhibition rate stood at 760000 M⁻¹ s⁻¹ with delta-plasmin (human), 750000 M⁻¹ s⁻¹ in the test with mini-plasmin (human), 780000 M⁻¹ s⁻¹ in the test with micro-plasmin and 650000 M⁻¹ s⁻¹ with plasmin (human).
